According to patent US20160279261A1 (Genentech, published 2016):
Values belong to the binder of their own block, whether it stands above or below them.

Molecular target: CD33 (UniProt P20138 18-364, limits assumed)
Test: cell-based or functional assay

CD33, sequence (P20138 18-364 limits assumed): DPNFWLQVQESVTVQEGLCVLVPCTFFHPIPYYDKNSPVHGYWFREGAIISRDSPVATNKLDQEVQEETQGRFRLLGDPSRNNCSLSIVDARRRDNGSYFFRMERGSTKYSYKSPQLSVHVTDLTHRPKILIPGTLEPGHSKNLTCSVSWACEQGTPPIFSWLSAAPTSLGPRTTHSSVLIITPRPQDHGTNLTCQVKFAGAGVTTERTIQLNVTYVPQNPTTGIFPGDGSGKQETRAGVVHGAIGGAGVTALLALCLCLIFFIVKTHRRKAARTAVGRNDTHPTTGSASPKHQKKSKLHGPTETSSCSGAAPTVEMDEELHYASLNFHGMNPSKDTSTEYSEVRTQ

- EOL-1 IC50 (in vitro cell proliferation assay): 370 ng/mL
B1: CD33 CBI-PBD ADC2-2 (antibody, V domains shown)
VH: QVQLVQSGAEVKKPGSSVKVSCKASGGIFSNHAISWVRQAPGQGLEWMGGIIPIFGTANYAQKFQGRVTITADESTSTAFMELSSLRSEDTAVYYCAREWADVFDIWGQGTMVTVSS
VL: EIVLTQSPLSLPVTPGEPASISCRSSQSLLHSNGYNYLDWYLQKPGQSPQLLIYLGVNSVSGVPDRFSGSGSGTDFTLKISRVEAEDVGVYYCMQALQTPWTFGQGTKVEIK

- EOL-1 IC50 (in vitro cell proliferation assay): 18.1 ng/mL
B2: CD33 CBI-PBD ADC3-2 (antibody, V domains shown)
VH: B1 VH
VL: B1 VL
